± gives the standard deviation of the averaged measurements.
Each sequence was assayed on ATP (assay: switch fluorescence ratio, 500 uM ATP over buffer (Cy3 cluster intensity, sum of 5 cycles each) (fold (ratio)); higher = stronger signal-on switching upon ATP binding; sequences stand for … in TCGTCGGCAGCGTCAGATGTGTATAAGAGACAGTTTTTTTTTTTTTTTTTTTTTTTTT…TC). Conditions: aptamer strand: ATP DNA aptamer (quencher-CACCTGGGGGAGTATTGCGGAGGAAGG + anchor), 100 nM annealed; ATP concentration: 500 uM.
In short: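 The fluorescence ratio divides summed target-cycle Cy3 intensity by summed buffer-cycle Cy3 intensity for each cluster and is averaged per switch-domain sequence. Cy3-labelled switching-strand clusters on a modified Illumina MiSeq flow-cell were annealed to 100 nM quencher-labelled ATP aptamer, then imaged in selection buffer and again after 15 min with 500 uM ATP at 22 °C. Five such cycles were run, with NaOH stripping and re-annealing between them, and clusters outside 100-1000 RFU were excluded.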
CGCTGTCAGC was tested, and the switch fluorescence ratio was 1.002 ± 0.0037. For CGCTTAACCG, the switch fluorescence ratio was 1.04 ± 0.043. CGCTTATACG gave a switch fluorescence ratio of 1.78 ± 0.58. CGCTTATCAT was tested, and the switch fluorescence ratio was 0.98 ± 0.03. For CGCTTCATTA, the switch fluorescence ratio was 1.01 ± 0.063. With CGCTTGGCTC the switch fluorescence ratio was 1.078 ± 0.0093. CGCTTTGACT gave a switch fluorescence ratio of 1.08 ± 0.021. CGGAAAAAGT gave a switch fluorescence ratio of 0.97 ± 0.013. CGGAAAAATC gave a switch fluorescence ratio of 1.53 ± 0.76. CGGAAAAATT was tested, and the switch fluorescence ratio was 1.04 ± 0.12. Sequence CGGAAACTTT has a switch fluorescence ratio of 1.0088 ± 0.00067. CGGAAAGGGA showed a switch fluorescence ratio of 1.01 ± 0.022. With CGGAAATGAA the switch fluorescence ratio was 0.9824 ± 0.0028. CGGAAGCTAA gave a switch fluorescence ratio of 1.46 ± 0.16. Work on CGGAAGGCTA yielded a switch fluorescence ratio of 1.025 ± 0.0069. Work on CGGAAGGGGA yielded a switch fluorescence ratio of 1.05 ± 0.027. CGGAAGTTCT showed a switch fluorescence ratio of 0.993 ± 0.049. For CGGAATAGCT, the switch fluorescence ratio was 1.22 ± 0.024. In the case of CGGAATTTC, the switch fluorescence ratio is reported as 1.11 ± 0.05. Work on CGGACACGAA yielded a switch fluorescence ratio of 0.981 ± 0.022. CGGACACGTT was tested, and the switch fluorescence ratio was 0.983 ± 0.052. CGGACCAGCG was tested, and the switch fluorescence ratio was 0.965 ± 0.0086. CGGACGAGAG gave a switch fluorescence ratio of 0.998 ± 0.022. CGGACGTGAC showed a switch fluorescence ratio of 2.79 ± 0.2. For CGGACTAGGT, the switch fluorescence ratio was 1.02 ± 0.011. CGGACTCATT gave a switch fluorescence ratio of 1.09 ± 0.15. Sequence CGGACTGGGC has a switch fluorescence ratio of 0.959 ± 0.051. With CGGAGAAAGG the switch fluorescence ratio was 1.03 ± 0.069. In the case of CGGAGAAGTT, the switch fluorescence ratio is reported as 1 ± 0.015. For CGGAGATCGG, the switch fluorescence ratio was 0.999 ± 0.013. Sequence CGGAGGAAGG has a switch fluorescence ratio of 1.044 ± 0.0072. For CGGAGGCTTG, the switch fluorescence ratio was 1.01 ± 0.061. For CGGAGGGTGT, the switch fluorescence ratio was 0.997 ± 0.033. CGGAGGTAGC was tested, and the switch fluorescence ratio was 1.03 ± 0.058. With CGGAGTCGCC the switch fluorescence ratio was 1.01 ± 0.012. For CGGAGTTAAG, the switch fluorescence ratio was 1.07 ± 0.044. Sequence CGGAGTTACA has a switch fluorescence ratio of 1.068 ± 0.0072. Sequence CGGAGTTTTT has a switch fluorescence ratio of 0.9971 ± 0.0058. With CGGATACGGT the switch fluorescence ratio was 0.997 ± 0.04. CGGATAGTGC was tested, and the switch fluorescence ratio was 1.07 ± 0.11. For CGGATCGGAT, the switch fluorescence ratio was 0.976 ± 0.04. Work on CGGATGATAG yielded a switch fluorescence ratio of 1 ± 0.059. Sequence CGGATGGAGG has a switch fluorescence ratio of 0.988 ± 0.042. CGGATGGCCT showed a switch fluorescence ratio of 1.03 ± 0.019. In the case of CGGATGTTCA, the switch fluorescence ratio is reported as 1.001 ± 0.0059. With CGGATTAGAG the switch fluorescence ratio was 0.9641 ± 0.0032. With CGGATTGAAT the switch fluorescence ratio was 1 ± 0.072. CGGATTGTGT gave a switch fluorescence ratio of 1.018 ± 0.0055. CGGATTTAAG showed a switch fluorescence ratio of 0.9979 ± 0.0066. CGGATTTAGA showed a switch fluorescence ratio of 0.987 ± 0.043. Sequence CGGCAATGGT has a switch fluorescence ratio of 1.87 ± 1.1. CGGCACCCTT gave a switch fluorescence ratio of 0.997 ± 0.017. CGGCAGCGGG showed a switch fluorescence ratio of 1.03 ± 0.013. In the case of CGGCAGCTGA, the switch fluorescence ratio is reported as 1 ± 0.011. CGGCAGGGTG was tested, and the switch fluorescence ratio was 1.05 ± 0.0092. CGGCAGGTAA gave a switch fluorescence ratio of 1.05 ± 0.03. In the case of CGGCATGGGT, the switch fluorescence ratio is reported as 0.989 ± 0.018. Sequence CGGCCAGGGG has a switch fluorescence ratio of 1.5 ± 0.09. For CGGCCATTTG, the switch fluorescence ratio was 0.993 ± 0.059. In the case of CGGCCCCCGT, the switch fluorescence ratio is reported as 1.4 ± 0.46. With CGGCCTGTGC the switch fluorescence ratio was 1.03 ± 0.087. Sequence CGGCGATGTT has a switch fluorescence ratio of 0.9867 ± 0.0076. Sequence CGGCGATTTA has a switch fluorescence ratio of 1.003 ± 0.009. CGGCGCCCA was tested, and the switch fluorescence ratio was 0.997 ± 0.01. CGGCGCCTGT was tested, and the switch fluorescence ratio was 1.01 ± 0.05. For CGGCGGGCGA, the switch fluorescence ratio was 1.03 ± 0.02. Work on CGGCGGGGGA yielded a switch fluorescence ratio of 1.04 ± 0.043. For CGGCGTACAT, the switch fluorescence ratio was 1.04 ± 0.02. In the case of CGGCGTAGTC, the switch fluorescence ratio is reported as 1.02 ± 0.035. Work on CGGCGTGGGG yielded a switch fluorescence ratio of 1.03 ± 0.027. Work on CGGCTAACAA yielded a switch fluorescence ratio of 1.02 ± 0.013. For CGGCTCAACT, the switch fluorescence ratio was 1.01 ± 0.022. In the case of CGGCTGGGTA, the switch fluorescence ratio is reported as 1.014 ± 0.0054. Sequence CGGCTGTGCT has a switch fluorescence ratio of 1 ± 0.022. Sequence CGGCTTAAGT has a switch fluorescence ratio of 1.01 ± 0.035. CGGCTTACAC showed a switch fluorescence ratio of 1.12 ± 0.017. For CGGCTTAGTA, the switch fluorescence ratio was 0.988 ± 0.062. With CGGCTTATTC the switch fluorescence ratio was 1.04 ± 0.015. In the case of CGGCTTGATA, the switch fluorescence ratio is reported as 1.01 ± 0.033. Work on CGGCTTGGGG yielded a switch fluorescence ratio of 1 ± 0.015. For CGGCTTTTGG, the switch fluorescence ratio was 0.9617 ± 0.0084. With CGGGAAAGTC the switch fluorescence ratio was 0.996 ± 0.027. Work on CGGGAAGAGC yielded a switch fluorescence ratio of 1.033 ± 0.0043. CGGGAATCTC showed a switch fluorescence ratio of 1.085 ± 0.0081. CGGGAATTTC gave a switch fluorescence ratio of 1.04 ± 0.027. For CGGGACATGA, the switch fluorescence ratio was 1.01 ± 0.012. CGGGACCGGC gave a switch fluorescence ratio of 1.04 ± 0.13. In the case of CGGGACTCTT, the switch fluorescence ratio is reported as 0.995 ± 0.017. In the case of CGGGACTGCT, the switch fluorescence ratio is reported as 0.9825 ± 0.0052. Work on CGGGAGAGTA yielded a switch fluorescence ratio of 1.54 ± 0.82. With CGGGAGCAGG the switch fluorescence ratio was 1.09 ± 0.014. In the case of CGGGAGGACT, the switch fluorescence ratio is reported as 0.989 ± 0.057. Work on CGGGAGGTCG yielded a switch fluorescence ratio of 1.05 ± 0.082. With CGGGAGGTGT the switch fluorescence ratio was 1.029 ± 0.0037. Work on CGGGAGTAGG yielded a switch fluorescence ratio of 1.04 ± 0.041. CGGGAGTTAA showed a switch fluorescence ratio of 1.01 ± 0.015. With CGGGAGTTGT the switch fluorescence ratio was 0.99 ± 0.042. Work on CGGGATAGAT yielded a switch fluorescence ratio of 1 ± 0.039. Work on CGGGATATAA yielded a switch fluorescence ratio of 0.989 ± 0.022. For CGGGATATCG, the switch fluorescence ratio was 1.01 ± 0.029. With CGGGATGCGC the switch fluorescence ratio was 1.04 ± 0.066. In the case of CGGGATGTGC, the switch fluorescence ratio is reported as 0.99328 ± 6e-06. In the case of CGGGATTAGT, the switch fluorescence ratio is reported as 0.99 ± 0.031. With CGGGATTATG the switch fluorescence ratio was 1.01 ± 0.052. CGGGATTTAA showed a switch fluorescence ratio of 1.03 ± 0.054. CGGGCAGCGG was tested, and the switch fluorescence ratio was 0.955 ± 0.06. In the case of CGGGCCACGA, the switch fluorescence ratio is reported as 1.04 ± 0.026. CGGGCCCCGG gave a switch fluorescence ratio of 1.74 ± 0.35. CGGGCCTGAA showed a switch fluorescence ratio of 0.999 ± 0.041. In the case of CGGGCGAATA, the switch fluorescence ratio is reported as 1 ± 0.017. Work on CGGGCGAGGG yielded a switch fluorescence ratio of 0.959 ± 0.011. In the case of CGGGCGCTGG, the switch fluorescence ratio is reported as 0.995 ± 0.018. CGGGCGGCAG was tested, and the switch fluorescence ratio was 1.04 ± 0.027. For CGGGCGGGGC, the switch fluorescence ratio was 1.04 ± 0.028. CGGGCGGGTA gave a switch fluorescence ratio of 1.034 ± 0.0088. For CGGGCGGTCG, the switch fluorescence ratio was 0.975 ± 0.068. Work on CGGGCGTGCC yielded a switch fluorescence ratio of 0.966 ± 0.014. Work on CGGGCTAAGG yielded a switch fluorescence ratio of 0.986 ± 0.018. In the case of CGGGCTGGCA, the switch fluorescence ratio is reported as 1.004 ± 0.01. For CGGGCTGGGT, the switch fluorescence ratio was 0.987 ± 0.057. Work on CGGGCTTCGA yielded a switch fluorescence ratio of 0.993 ± 0.013. In the case of CGGGGAAAAA, the switch fluorescence ratio is reported as 1.06 ± 0.094. For CGGGGAAGCG, the switch fluorescence ratio was 1.01 ± 0.021. Sequence CGGGGAATCA has a switch fluorescence ratio of 0.991 ± 0.038. CGGGGAGAGC was tested, and the switch fluorescence ratio was 1.03 ± 0.039. CGGGGAGAGG showed a switch fluorescence ratio of 0.998 ± 0.036. Work on CGGGGAGCGT yielded a switch fluorescence ratio of 1 ± 0.034. In the case of CGGGGAGCTG, the switch fluorescence ratio is reported as 1.02 ± 0.036. Sequence CGGGGAGGGG has a switch fluorescence ratio of 0.985 ± 0.028. CGGGGAGTAA showed a switch fluorescence ratio of 1.01 ± 0.012. CGGGGAGTTT was tested, and the switch fluorescence ratio was 0.978 ± 0.05. In the case of CGGGGATATT, the switch fluorescence ratio is reported as 1.11 ± 0.23. CGGGGATGAA gave a switch fluorescence ratio of 1.01 ± 0.063. CGGGGCAAAT gave a switch fluorescence ratio of 1.04 ± 0.028. CGGGGCACGT showed a switch fluorescence ratio of 1.16 ± 0.23. With CGGGGCAGCT the switch fluorescence ratio was 1.1 ± 0.11. In the case of CGGGGCATTG, the switch fluorescence ratio is reported as 1.013 ± 0.0046. CGGGGCGAGG gave a switch fluorescence ratio of 1 ± 0.017. Sequence CGGGGCTTTG has a switch fluorescence ratio of 0.982 ± 0.025. Work on CGGGGGAACG yielded a switch fluorescence ratio of 1.01 ± 0.048. In the case of CGGGGGAAGG, the switch fluorescence ratio is reported as 0.979 ± 0.026. With CGGGGGAGGC the switch fluorescence ratio was 0.96 ± 0.018. CGGGGGAGTC showed a switch fluorescence ratio of 1.02 ± 0.027. Sequence CGGGGGATCA has a switch fluorescence ratio of 1.01 ± 0.049. Sequence CGGGGGATTT has a switch fluorescence ratio of 1.01 ± 0.014. CGGGGGCACC showed a switch fluorescence ratio of 1.07 ± 0.057. With CGGGGGCGGA the switch fluorescence ratio was 1.04 ± 0.052. CGGGGGCTCG gave a switch fluorescence ratio of 0.989 ± 0.069. For CGGGGGCTGT, the switch fluorescence ratio was 0.964 ± 0.0037. Sequence CGGGGGGAGG has a switch fluorescence ratio of 1.01 ± 0.035. CGGGGGGATA showed a switch fluorescence ratio of 1.07 ± 0.15. In the case of CGGGGGGCCC, the switch fluorescence ratio is reported as 0.97 ± 0.024. Work on CGGGGGGCCG yielded a switch fluorescence ratio of 0.995 ± 0.01.

— the supplement of paper PMC10126150
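Further: ATP exposure 15 min at 22 °C before imaging.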
